From article PMC9409100

Key:
Assay in all cases: pull-down
[1] = molecular target: T1, His6-MBP-Csy4* (inactive Csy4) H29A;S50C (Pseudomonas aeruginosa) (UniProt Q02MM2); settings: no imidazole; RNA folded in 20 mM Tris-HCl pH 7.5, 100 mM (salt not given), 3 mM MgCl2; binding 90 min at 4 C on beads; RNA binding buffer 20 mM Tris-HCl pH 7.5, 100 mM …
T1 sequence: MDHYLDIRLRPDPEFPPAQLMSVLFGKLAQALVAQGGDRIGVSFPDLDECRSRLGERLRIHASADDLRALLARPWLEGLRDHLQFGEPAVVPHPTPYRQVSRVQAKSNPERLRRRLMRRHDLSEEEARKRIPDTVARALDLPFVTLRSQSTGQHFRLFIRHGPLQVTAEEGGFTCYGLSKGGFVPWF

[2] = molecular target: T2, His6-Myc-Csy4* (inactive Csy4) H29A;S50C (Pseudomonas aeruginosa) (UniProt Q02MM2); settings: no imidazole; 'almost 50%'; RNA folded in 20 mM Tris-HCl pH 7.5, 100 mM (salt not given), 3 mM MgCl2; binding 90 min at 4 C on beads; RNA binding buffer 20 mM Tris-HCl pH 7.5, 100 mM …
T2 sequence: T1 sequence

[3] = molecular target: T3, His6-TwinStrep-Csy4* (inactive Csy4) H29A;S50C (Pseudomonas aeruginosa) (UniProt Q02MM2); settings: no imidazole; RNA folded in 20 mM Tris-HCl pH 7.5, 100 mM (salt not given), 3 mM MgCl2; binding 90 min at 4 C on beads; RNA binding buffer 20 mM Tris-HCl pH 7.5, 100 mM …
T3 sequence: T1 sequence

GGGUUCACUGCCGUAUAGGCAGAUAUAGAAGGUAGUGGAUCUCGACAGGGUUGAUAUGAGAACACACGAGUAAUCAACGGCUGUAAUGACGCUACGUCAUUGUUACAGCUCUCGUUUUCAUGUGUUCUCAGGUCACCCCUGCUGAGCUCUUUCUCUACCGUAAUUAC [Csy4-hairpin-tagged pri-miR398b-SL]
binding signal (% transcript depleted from supernatant) [1]: 80 | binding signal (% transcript depleted from supernatant) [2]: 50 | binding signal (% transcript depleted from supernatant) [3]: < 10
